Here are results for 1 molecule from paper doi:10.1101/2022.04.28.489915 (bioRxiv, 2022).

The test deals with T1, TolC (E. coli, UniProt P02930 23-493).
T1 sequence: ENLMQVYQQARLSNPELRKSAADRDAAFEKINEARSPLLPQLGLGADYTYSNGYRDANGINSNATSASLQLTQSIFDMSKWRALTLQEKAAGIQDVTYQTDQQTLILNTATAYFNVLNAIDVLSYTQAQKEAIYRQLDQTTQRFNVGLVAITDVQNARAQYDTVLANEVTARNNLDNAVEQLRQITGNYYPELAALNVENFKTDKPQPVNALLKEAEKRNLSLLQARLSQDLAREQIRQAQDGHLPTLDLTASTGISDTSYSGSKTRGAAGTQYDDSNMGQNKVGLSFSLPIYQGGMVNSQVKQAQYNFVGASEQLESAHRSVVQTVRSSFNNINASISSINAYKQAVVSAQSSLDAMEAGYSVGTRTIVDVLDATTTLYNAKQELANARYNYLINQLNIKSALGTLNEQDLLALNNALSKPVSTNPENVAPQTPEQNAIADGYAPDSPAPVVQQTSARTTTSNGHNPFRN
Nature of the test: SEC. (In general: In gel filtration, larger molecules generally elute earlier.)

B1: residues 1-190 of colicin E1 (colE1-T) (domain or fragment)
chain: METAVAYYKDGVPYDDKGQVIITLLNGTPDGSGSGGGGGKGGSKSESSAAIHATAKWSTAQLKKTQAEQAARAKAAAEAQAKAKANRDALTQRLKDIVNEALRHNASRTPSATELAHANNAAMQAEDERLRLAKAEEKARKEAEAAEKAFQEAEQRRKEIEREKAETERQLKLAEAEEKRLAALSEEAKA
Turning to B1, the binding result was “binds”.
